This note sets out measurements from publication PMC4482739, “MamA as a Model Protein for Structure-Based Insight into the Evolutionary Origins of Magnetotactic Bacteria” (PLoS ONE, 2015).

For series [1], the target named is MamAΔ41 RS-1 TM (triple mutant E140A, K141A, E143A) (Desulfovibrio magneticus RS-1). The series can be described thus: crystal structure; X-ray, 2.88 Å, space group I4; crystals from 0.1 M Tris pH 8.1, 0.75 M sodium potassium tartrate, 0.5% PEG monomethyl ether 5000; six monomers as two trimeric rings in the asymmetric unit.
For series [2] the target is unchanged. The series can be described thus: SEC; Superdex 200, buffer E (10 mM HEPES pH 7.5, 0.5 M NaCl, 5 mM βME); sizes from elution volumes against a standard calibration curve. (Size exclusion chromatography separates by hydrodynamic size, large species first.)
Series [3] deals with MamAΔ41 from Desulfovibrio magneticus RS-1 (wild type) (Desulfovibrio magneticus RS-1). The description is as above.
Series [4] concerns the molecule itself. The series can be described thus: SEC; Superdex 200; sizes from elution volumes against protein markers; buffer for these proteins not stated.

Values joined by “and” are separate entries in the source; they are usually repeats but may differ in a detail not shown here. Equal entries are not always repeated.

Broadly, the stoichiometry N is the number of molecules, sites or subunits per partner or assembly. Regarding “MamAΔ41 RS-1 TM (triple mutant E140A, K141A, E143A) (domain or fragment)”, the stoichiometry N in series [1] is 3; in series [2], 13 and 8. As for “MamAΔ41 from Desulfovibrio magneticus RS-1 (wild type) (domain or fragment)”, the stoichiometry N in series [3] was found to be 8.

B1: MamAΔ41 from Magnetospirillum gryphiswaldense MSR-1 (domain or fragment, UniProt Q93DY9 42-217, looked up)
chain: DDIRQVYYRDKGISHAKAGRYSEAVVMLEQVYDADAFDVEVALHLGIAYVKTGAVDRGTELLERSIADAPDNIKVATVLGLTYVQVQKYDLAVPLLVKVAEANPVNFNVRFRLGVALDNLGRFDEAIDSFKIALGLRPNEGKVHRAIAYSYEQMGSHEEALPHFKKANELDERSAV
notes: MamA of Magnetospirillum gryphiswaldense MSR-1, Δ41 mutant (the putative N-terminal TPR repeat removed); Trimer by SEC; also called MamAΔ41_(MSR-1)
Consider B1, for which the “stoichiometry N” value in series [4] worked out at 3.
